Measured values reported in patent US20250346679A1 (INVOX PHARMA, published 2025).

T1: cCD137-mFc-Avi (cynomolgus; mouse)
T1 construct: also called cynomolgus CD137-mFc-Avi; Cyno CD137-mFc-Avi; not shown: mouse IgG2a Fc domain (mIgG2a Fc)
T1 chain: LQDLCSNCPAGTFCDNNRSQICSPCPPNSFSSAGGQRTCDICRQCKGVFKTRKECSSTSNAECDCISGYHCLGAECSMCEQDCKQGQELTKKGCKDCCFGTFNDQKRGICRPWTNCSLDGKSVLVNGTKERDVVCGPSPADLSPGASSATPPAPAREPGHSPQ

T2: cynomolgus CD137, cell-surface (cynomolgus, UniProt Q07011 24-255 (human entry))
T2 chain: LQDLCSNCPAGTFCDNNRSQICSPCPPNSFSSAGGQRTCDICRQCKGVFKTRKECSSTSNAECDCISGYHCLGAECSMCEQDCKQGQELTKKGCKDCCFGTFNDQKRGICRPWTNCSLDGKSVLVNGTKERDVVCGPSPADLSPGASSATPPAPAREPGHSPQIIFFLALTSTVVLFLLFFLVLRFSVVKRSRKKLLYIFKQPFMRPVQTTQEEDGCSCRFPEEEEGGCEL


Assays:
[1] = molecular target: T3, cPD-L1-His (Acro Biosystems, PD1-C52H4) (cynomolgus, UniProt Q9NZQ7 19-238 (human entry)); assay: SPR, mAb^2 captured on Protein A chip, antigen in flow
T3 construct: bought; also called Cyno PD-L1-His; Cynomolgus PD-L1-His; not shown: His tag of the bought product
T3 sequence (Q9NZQ7 other isoform, or with tags, fused parts or gaps): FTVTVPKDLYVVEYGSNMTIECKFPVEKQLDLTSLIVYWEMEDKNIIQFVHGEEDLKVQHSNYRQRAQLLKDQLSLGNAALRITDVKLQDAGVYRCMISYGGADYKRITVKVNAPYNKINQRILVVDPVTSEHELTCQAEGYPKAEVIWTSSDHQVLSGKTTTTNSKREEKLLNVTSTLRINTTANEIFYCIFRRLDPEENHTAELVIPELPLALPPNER
Description: (§1) Briefly, the anti-human CD137/PD-L1 mAb², diluted in HBS-EP buffer (GE Healthcare, BR100188) at 2 μg/ml, were injected individually on flows cell 2, 3 and 4 of a Protein A chip (GE Healthcare, 29127556) at 30 μl/min to achieve a final response of approximately 110 RU. Two different recombinant human PD-L1 antigens were used i.e. hPD-L1-His-Avi (see Example 1.3 for antigen details) and biotinylated hPD-L1-Avi-His (Acrobiosystems, PD-1-H82E5). Human and cynomolgus PD-L1-His (Acrobiosystems, PD-1-C52H4) antigens, diluted in HBS-EP buffer, were injected on flow cell 1, 2, 3 or 4 as appropriate at a concentration range of 81 nM to 0.037 nM with 3-fold dilutions for 4 min at 75 μl/min and then allowed to dissociate in buffer for 10 min. Regeneration was achieved by injecting 10 mM glycine-HCL pH1.5 (GE Healthcare, Human Antibody Capture Kit, BR00356) for 30 sec at a rate of 30 μl/min. Subtracted data (flow cell 2−flow cell 1, flow cell 3−flow cell 1, or flow cell 4−flow cell 1) were analysed using BIAevaluation 3.2 Software (GE Healthcare) to identify binding using the model 1:1 binding with mass transfer, with refractive index (RI) constant 0.

[2] = molecular target: T4, biotinylated hPD-L1-Avi-His (Acro Biosystems, PD1-H82E5) (human, UniProt Q9NZQ7 19-238, biotinylated); assay: as above
T4 construct: bought; also called Human PD-L1-His; not shown: Avi and His tags of the bought product
T4 sequence (Q9NZQ7 19-238): as the sequence (Q9NZQ7 other isoform, or with tags, fused parts or gaps) above, with T33A, S34A, N62S, Q68R, R82Q, L173F, A185T, I192T, L215H counted along it
Description: as §1

[3] = molecular target: human PD-L1, cell-surface (human, UniProt Q9NZQ7 19-290); assay: cell-based or functional assay
Chain of human PD-L1, cell-surface (Q9NZQ7 19-290): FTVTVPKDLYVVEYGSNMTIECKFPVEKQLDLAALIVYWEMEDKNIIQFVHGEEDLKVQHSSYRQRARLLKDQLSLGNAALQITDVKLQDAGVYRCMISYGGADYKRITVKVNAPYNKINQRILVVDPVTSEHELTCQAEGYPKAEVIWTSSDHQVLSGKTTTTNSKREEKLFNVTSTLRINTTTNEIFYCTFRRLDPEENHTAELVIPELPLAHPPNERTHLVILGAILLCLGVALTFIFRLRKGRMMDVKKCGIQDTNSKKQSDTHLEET

[4] = molecular target: T5, hCD137-mFc-Avi (human; mouse, UniProt Q07011 24-186, biotin on the Avi sequence where the biotinylated form was used); assay: SPR, mAb^2 captured by anti-human Fab, antigen in flow
T5 construct: also called human CD137-mFc-Avi; dimeric human CD137; not shown: mouse IgG2a Fc domain (mIgG2a Fc)
T5 sequence (Q07011 24-186): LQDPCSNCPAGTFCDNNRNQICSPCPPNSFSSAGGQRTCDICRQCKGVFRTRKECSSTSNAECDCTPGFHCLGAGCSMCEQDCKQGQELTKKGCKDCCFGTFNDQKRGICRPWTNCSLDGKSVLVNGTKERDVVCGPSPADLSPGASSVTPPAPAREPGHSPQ
Description: (§2) The binding of the anti-human CD137/PD-L1 mAb² to recombinant dimeric human and cynomolgus CD137 antigens was also measured by SPR using a Biacore T200 processing unit (GE Healthcare).
(§3) Briefly, 20 μg/ml anti-human Fab antibody (GE Healthcare, Human Fab Capture kit 28958325) was coated on flow cells 1, 2, 3 and 4 of a Biacore sensor S chip CM5 (GE Healthcare, BR100530) achieving a final response of approximately 5000 RU. […] The recombinant dimeric antigens, human CD137-mFc-Avi or cynomolgus CD137-mFc-Avi (see Example 1.1 for antigen details) diluted in HBS-EP buffer, were injected on flow cell 1, 2, 3 or 4 as appropriate at a concentration range of 81 nM to 0.037 nM with 3-fold dilutions for 4 minutes at 70 μl/min and then allowed to dissociate in buffer for 10 minutes. Regeneration was achieved by injecting 10 mM glycine pH 2.1 (GE Healthcare, Human Fab Capture kit 28958325) for 60 seconds at a rate of 30 μl/min. Data analysis was performed as described in Example 9.1.

[5] = molecular target: T1, cCD137-mFc-Avi; assay: as above
Description: as §2, §3

[6] = molecular target: human CD137, cell-surface (human, UniProt Q07011 24-255); assay: cell-based or functional assay
[7] = molecular target: T2, cynomolgus CD137, cell-surface; assay: cell-based or functional assay

Kd [1] [nM]	Kd [2] [nM]	EC50 (nM), IFN-γ release, human MLR [3] [nM]	Emax (pg/ml), IFN-γ release, human MLR [3] [pg/mL]	Kd [4] [nM]	Kd [5] [nM]	EC50 (nM), hIL-2 release, CD8+ T cells, donor 171115A, HEK.hPD-L1 XL [6] [nM]	EC50 (nM), hIL-2 release, CD8+ T cells, donor 171115A, MDA-MB-231 XL [6] [nM]	EC50 (nM), hIL-2 release, CD8+ T cells, donor 171115B, HEK.hPD-L1 XL [6] [nM]	EC50 (nM), hIL-2 release, CD8+ T cells, donor 171115B, MDA-MB-231 XL [6] [nM]	EC50 (nM) (crosslinked), mIL-2 release, DO11.10.cCD137 with HEK.cyPD-L1 [7]	Emax (pg/ml) (crosslinked), mIL-2 release, DO11.10.cCD137 with HEK.cyPD-L1 [7] [pg/mL]	Binder
0.59	0.5	0.03	2650	1.5	1	0.27	0.02	0.19	0.02	0.08	10500	FS22-172-003-AA/E05v2 (bispecific antibody, human IgG1, kappa, L234A L235A) heavy: EVQLVQSGAEVKRPGASVKVSCKASGYTFTSYGISWVRQAPGQGLEWMGWISAYSGGTNYAQKLQGRVTMTTDTSTSTAYMELRSLRSDDTAVYYCARDLFPTIFGVSYYYYWGQGTLVTVSSASTKGPSVFPLAPSSKSTSGGTAALGCLVKDYFPEPVTVSWNSGALTSGVHTFPAVLQSSGLYSLSSVVTVPSSSLGTQTYICNVNHKPSNTKVDKKVEPKSCDKTHTCPPCPAPEAAGGPSVFLFPPKPKDTLMISRTPEVTCVVVDVSHEDPEVKFNWYVDGVEVHNAKTKPREEQYNSTYRVVSVLTVLHQDWLNGKEYKCKVSNKALPAPIEKTISKAKGQPREPQVYTLPPSRDELPYIIPPYNQVSLTCLVKGFYPSDIAVEWESNGQPENNYKTTPPVLDSDGSFFLYSKLTVGADRWLEGNVFSCSVMHEALHNHYTQKSLSLSPG light: DIQMTQSPSTLSASVGDRVTITCRASQSISGRLAWYQQKPGKAPNLLIYEASNLESGVPSRFSGSGSGTEFTLTISSLQPEDFATYYCQQSYSTPRVTFGQGTKVEIKRTVAAPSVFIFPPSDEQLKSGTASVVCLLNNFYPREAKVQWKVDNALQSGNSQESVTEQDSKDSTYSLSSTLTLSKADYEKHKVYACEVTHQGLSSPVTKSFNRGEC
0.58	0.47	0.02	2800	2.8	1.1	0.16	0.01	0.11	0.02	0.06	8060	FS22-053-008-AA/E05v2 (bispecific antibody, human IgG1, kappa, L234A L235A) heavy: EVQLVQSGAEVKRPGASVKVSCKASGYTFTSYGISWVRQAPGQGLEWMGWISAYSGGTNYAQKLQGRVTMTTDTSTSTAYMELRSLRSDDTAVYYCARDLFPTIFGVSYYYYWGQGTLVTVSSASTKGPSVFPLAPSSKSTSGGTAALGCLVKDYFPEPVTVSWNSGALTSGVHTFPAVLQSSGLYSLSSVVTVPSSSLGTQTYICNVNHKPSNTKVDKKVEPKSCDKTHTCPPCPAPEAAGGPSVFLFPPKPKDTLMISRTPEVTCVVVDVSHEDPEVKFNWYVDGVEVHNAKTKPREEQYNSTYRVVSVLTVLHQDWLNGKEYKCKVSNKALPAPIEKTISKAKGQPREPQVYTLPPSRDELNPPYLFSNQVSLTCLVKGFYPSDIAVEWESNGQPENNYKTTPPVLDSDGSFFLYSKLTVDYWRWLEGNVFSCSVMHEALHNHYTQKSLSLSPG light: DIQMTQSPSTLSASVGDRVTITCRASQSISGRLAWYQQKPGKAPNLLIYEASNLESGVPSRFSGSGSGTEFTLTISSLQPEDFATYYCQQSYSTPRVTFGQGTKVEIKRTVAAPSVFIFPPSDEQLKSGTASVVCLLNNFYPREAKVQWKVDNALQSGNSQESVTEQDSKDSTYSLSSTLTLSKADYEKHKVYACEVTHQGLSSPVTKSFNRGEC
